B1: KPEGTRIAV (SEQ ID NO: 295) (peptide)
peptide: KPEGTRIAV
B2: SPRDFLSGL (SEQ ID NO: 250) (peptide)
peptide: SPRDFLSGL
B3: IPNWARQDL (SEQ ID NO: 248) (peptide)
peptide: IPNWARQDL
B4: RAKNAGVTI (SEQ ID NO: 234) (peptide)
peptide: RAKNAGVTI
B5: APYKSVTSL (SEQ ID NO: 466) (peptide)
peptide: APYKSVTSL
B6: SPQRLRGLL (SEQ ID NO: 291) (peptide)
peptide: SPQRLRGLL
B7: VPENHSVAL (SEQ ID NO: 289) (peptide)
peptide: VPENHSVAL
B8: NPFPHLITL (SEQ ID NO: 254) (peptide)
peptide: NPFPHLITL
B9: RPIENRILIL (SEQ ID NO: 243) (peptide)
peptide: RPIENRILIL
B10: SPRQPPRLV (SEQ ID NO: 265) (peptide)
peptide: SPRQPPRLV
B11: FPYVRDFVM (SEQ ID NO: 244) (peptide)
peptide: FPYVRDFVM
B12: VPTLRSEL (SEQ ID NO: 286) (peptide)
peptide: VPTLRSEL
B13: LPRLLPAL (SEQ ID NO: 474) (peptide)
peptide: LPRLLPAL
B14: SARLATDAL (SEQ ID NO: 241) (peptide)
peptide: SARLATDAL
B15: SPRMSGLLSQT (SEQ ID NO: 226) (peptide)
peptide: SPRMSGLLSQT
B16: RPHSLSSEL (SEQ ID NO: 283) (peptide)
peptide: RPHSLSSEL
B17: SPDIRNTTV (SEQ ID NO: 252) (peptide)
peptide: SPDIRNTTV
B18: MPLKHYLLL (SEQ ID NO: 235) (peptide)
peptide: MPLKHYLLL
B19: LPFDGPGGIL (SEQ ID NO: 225) (peptide)
peptide: LPFDGPGGIL
B20: RPRALRDLQL (SEQ ID NO: 231) (peptide)
peptide: RPRALRDLQL
B21: VPSSRILQL (SEQ ID NO: 249) (peptide)
peptide: VPSSRILQL
B22: KPRPDVTNEL (SEQ ID NO: 471) (peptide)
peptide: KPRPDVTNEL
B23: GPTPNTGAAL (SEQ ID NO: 294) (peptide)
peptide: GPTPNTGAAL
B24: SPRVPSIEL (SEQ ID NO: 256) (peptide)
peptide: SPRVPSIEL
B25: YPRGNHWAVGHL (SEQ ID NO: 228) (peptide)
peptide: YPRGNHWAVGHL
B26: VPDVAQFVL (SEQ ID NO: 221) (peptide)
peptide: VPDVAQFVL
B27: SPSVSQLSVL (SEQ ID NO: 220) (peptide)
peptide: SPSVSQLSVL
B28: FPSFLTNSL (SEQ ID NO: 285) (peptide)
peptide: FPSFLTNSL
B29: MPLPWSLALPL (SEQ ID NO: 272) (peptide)
peptide: MPLPWSLALPL
B30: KPYQGNPTF (SEQ ID NO: 233) (peptide)
peptide: KPYQGNPTF
B31: YPKDIYSSF (SEQ ID NO: 223) (peptide)
peptide: YPKDIYSSF
B32: APRAPRLML (SEQ ID NO: 269) (peptide)
peptide: APRAPRLML
B33: YPRPGTPAA (SEQ ID NO: 464) (peptide)
peptide: YPRPGTPAA
B34: VPRSSGQTV (SEQ ID NO: 251) (peptide)
peptide: VPRSSGQTV
B35: SPREVTTVL (SEQ ID NO: 240) (peptide)
peptide: SPREVTTVL
B36: YPRGNHWAVGH (SEQ ID NO: 227) (peptide)
peptide: YPRGNHWAVGH
B37: VPRPIFSQL (SEQ ID NO: 465) (peptide)
peptide: VPRPIFSQL
B38: TPLPAVIVL (SEQ ID NO: 246) (peptide)
peptide: TPLPAVIVL
B39: LPRIPFADV (SEQ ID NO: 257) (peptide)
peptide: LPRIPFADV
B40: RPRALRDLQLL (SEQ ID NO: 232) (peptide)
peptide: RPRALRDLQLL
B41: MPMAGDMNGL (SEQ ID NO: 460) (peptide)
peptide: MPMAGDMNGL
B42: GPQPWHAAL (SEQ ID NO: 224) (peptide)
peptide: GPQPWHAAL
B43: RPPAAGLRGISL (SEQ ID NO: 259) (peptide)
peptide: RPPAAGLRGISL
B44: SPNSYFRVL (SEQ ID NO: 470) (peptide)
peptide: SPNSYFRVL
B45: SPRWLPVSL (SEQ ID NO: 242) (peptide)
peptide: SPRWLPVSL
B46: RPRSALPRLLLP (SEQ ID NO: 293) (peptide)
peptide: RPRSALPRLLLP
B47: RPHKPGLYL (SEQ ID NO: 475) (peptide)
peptide: RPHKPGLYL
B48: LPRGPLASL (SEQ ID NO: 258) (peptide)
peptide: LPRGPLASL
B49: YVPSASLFML (SEQ ID NO: 239) (peptide)
peptide: YVPSASLFML
B50: LPRALLSSL (SEQ ID NO: 473) (peptide)
peptide: LPRALLSSL
B51: RPFHTRATV (SEQ ID NO: 462) (peptide)
peptide: RPFHTRATV
B52: NPRATDAQL (SEQ ID NO: 472) (peptide)
peptide: NPRATDAQL
B53: SPMYGQAGL (SEQ ID NO: 468) (peptide)
peptide: SPMYGQAGL
B54: HPAPYGDLL (SEQ ID NO: 263) (peptide)
peptide: HPAPYGDLL
B55: KPFSSFTSM (SEQ ID NO: 467) (peptide)
peptide: KPFSSFTSM
B56: RVRGGEDGDRAL (SEQ ID NO: 236) (peptide)
peptide: RVRGGEDGDRAL
B57: RPRAPVTPA (SEQ ID NO: 281) (peptide)
peptide: RPRAPVTPA
B58: TPKAGPTL (SEQ ID NO: 463) (peptide)
peptide: TPKAGPTL
B59: APYRPPDISL (SEQ ID NO: 290) (peptide)
peptide: APYRPPDISL
B60: YPLFRGINL (SEQ ID NO: 268) (peptide)
peptide: YPLFRGINL
B61: MPLLENLYL (SEQ ID NO: 255) (peptide)
peptide: MPLLENLYL
B62: KPGPPWAAF (SEQ ID NO: 238) (peptide)
peptide: KPGPPWAAF
B63: APGPRFLVT (SEQ ID NO: 270) (peptide)
peptide: APGPRFLVT
B64: MYINEVERL (SEQ ID NO: 385) (peptide)
peptide: MYINEVERL
B65: VYNDHSIYVW (SEQ ID NO: 386) (peptide)
peptide: VYNDHSIYVW
B66: LLDPRSYHTY (SEQ ID NO: 415) (peptide)
peptide: LLDPRSYHTY
B67: KTDESLTKY (SEQ ID NO: 414) (peptide)
peptide: KTDESLTKY
B68: FTEQWTDGY (SEQ ID NO: 408) (peptide)
peptide: FTEQWTDGY

What follows are binders tested against T1, HLA-B*07 (human) (assay: UV peptide-exchange ELISA; ++++ = yield >75%).
T1 construct: MHC monomer made peptide-receptive by UV cleavage of a UV-sensitive ligand; also called peptide-receptive MHC class I monomer
From the text: (§1) Candidate peptides for T cell based therapies according to the present invention were further tested for their MHC binding capacity (affinity). The individual peptide-MHC complexes were produced by UV-ligand exchange, where a UV-sensitive peptide is cleaved upon UV-irradiation, and exchanged with the peptide of interest as analyzed. Only peptide candidates that can effectively bind and stabilize the peptide-receptive MHC molecules prevent dissociation of the MHC complexes. To determine the yield of the exchange reaction, an ELISA was performed based on the detection of the light chain (β2m) of stabilized MHC complexes. The assay was performed as generally described in Rodenko et al. (Rodenko et al., 2006).
(§2) 96 well MAXISorp plates (NUNC) were coated over night with 2 ug/ml streptavidin in PBS at room temperature, washed 4× and blocked for 1 h at 37° C. in 2% BSA containing blocking buffer. […] Peptide-MHC monomers of the UV-exchange reaction were diluted 100-fold in blocking buffer. Samples were incubated for 1 h at 37° C., washed four times, incubated with 2 ug/ml HRP conjugated anti-β2m for 1h at 37° C., washed again and detected with TMB solution that is stopped with […]. Absorption was measured at 450 nm.

| Binder | peptide exchange yield |
| --- | --- |
| B1 | > 75% |
| B2 | > 75% |
| B3 | > 75% |
| B4 | > 75% |
| B5 | > 75% |
| B6 | > 75% |
| B7 | > 75% |
| B8 | > 75% |
| B9 | > 75% |
| B10 | > 75% |
| B11 | > 75% |
| B12 | > 75% |
| B13 | > 75% |
| B14 | > 75% |
| B15 | > 75% |
| B16 | > 75% |
| B17 | > 75% |
| B18 | > 75% |
| B19 | > 75% |
| B20 | > 75% |
| B21 | > 75% |

| Binder | peptide exchange yield |
| --- | --- |
| B22 | > 75% |
| B23 | > 75% |
| B24 | > 75% |
| B25 | > 75% |
| B26 | > 75% |
| B27 | > 75% |
| B28 | > 75% |
| B29 | > 75% |
| B30 | > 75% |
| B31 | > 75% |
| B32 | > 75% |
| B33 | > 75% |
| B34 | > 75% |
| B35 | > 75% |
| B36 | > 75% |
| B37 | > 75% |
| B38 | > 75% |
| B39 | > 75% |
| B40 | > 75% |
| B41 | > 75% |
| B42 | > 75% |

| Binder | peptide exchange yield |
| --- | --- |
| B43 | > 75% |
| B44 | > 75% |
| B45 | > 75% |
| B46 | > 75% |
| B47 | > 75% |
| B48 | > 75% |
| B49 | > 75% |
| B50 | > 75% |
| B51 | > 75% |
| B52 | > 75% |
| B53 | > 75% |
| B54 | > 75% |
| B55 | > 75% |
| B56 | > 75% |
| B57 | > 75% |
| B58 | > 75% |
| B59 | > 75% |
| B60 | > 75% |
| B61 | > 75% |
| B62 | > 75% |
| B63 | > 75% |

These binders were tested against T2, HLA-A*24 (human) (assay: UV peptide-exchange ELISA; ++++ = yield >75%).
T2 construct: MHC monomer made peptide-receptive by UV cleavage of a UV-sensitive ligand; also called peptide-receptive MHC class I monomer
From the text: as §1, §2

| Binder | peptide exchange yield |
| --- | --- |
| B64 | > 75% |
| B65 | > 75% |

Each binder was assayed against T3, HLA-A*01 (human) (assay: UV peptide-exchange ELISA; +++ = yield >50%).
T3 construct: MHC monomer made peptide-receptive by UV cleavage of a UV-sensitive ligand; also called peptide-receptive MHC class I monomer
From the text: as §1, §2

| Binder | peptide exchange yield |
| --- | --- |
| B66 | 50 to 75% |
| B67 | 50 to 75% |
| B68 | 50 to 75% |
